Test results published in the supplement of paper PMC9170038.

Tested on: K4 kissing-loop RNA reporter
Test: apparent KD of K4 kissing-loop reporter; higher = weaker reporter binding
Details: Eterna round: R107
Description: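 RNA-MaP round R107: designed RNA switches with theophylline, tryptophan, arginine or FMN aptamers are transcribed on-chip within common flanks. They are titrated with a labelled K4 kissing-loop RNA reporter in RNA-MaP buffer (100 mM Tris pH 7.5, 80 mM KCl, 4 mM MgCl2), without ligand or with the indicated ligand. Median apparent KD per design.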

[1] = input ligand: theophylline 20 uM
[2] = input ligand: tryptophan 2.4 mM
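Further: bound reporter read as fluorescence of individual clusters on recovered sequencing chips by microscopy, with normalized cluster intensities fitted with a binding model.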

Sequence	apparent KD of K4 kissing-loop reporter (input ligand: FMN 200 uM)	apparent KD of K4 kissing-loop reporter (input ligand: arginine 13.2 mM)	apparent KD of K4 kissing-loop reporter (input ligand: none)	apparent KD of K4 kissing-loop reporter [1]	apparent KD of K4 kissing-loop reporter [2]
AUUUUAGAGUGAUGUUCUAAUUGAUCAGAUACCAGACAAUUAUAAGUCCCUUGGCAGCUGUAGCCGAUAAAUUUAUUUAAUUUAA [JR_SSTheophyA_Sub024]	229 nM	275 nM	302 nM	373 nM	225 nM
UCCUGCAAUCAGCCACGAAAGUGGAUGGAUACCAGAGUCGAAAGACUCCCUUGGCAGCCAGUGAUGUUGGAAGCAGGUAAAUAAA	583 nM	501 nM	761 nM	342 nM	1290 nM
GCCGUAGAUUGAAGGAGCGGCUUCAUCAAAUCUCUAGCCCACACCAGUGAUGUUGGUGUUAGCCAGGUAGGUCGCAAUCUACGGC	421 nM	313 nM	450 nM	430 nM	411 nM
AGCUCAGAGUGACUUGAUAAGAGUCACAAACGAGGACCGGUACGGCCGCCACUCGAAAUAACGAGAGUGAUGUUCUCGCUGAGCA [FiskerMod 5 - Jieux - Same State Tryptophan A]	696 nM	564 nM	980 nM	843 nM	328 nM
AAGUGAUGUUGUAGUGAUGUUGUGAUGUUGCAGGAUAUAUAGUGAUGUAGAAGGGUAAGUACUGAUUUUGUUUGUGAGUGAUGUU [zqqzzrmullin]	92.8 nM	40.1 nM	73.8 nM	61.1 nM	67.8 nM
AAUUAAUGUAUAGAUUAUAUACAUUAAUCAGAGGAUAUGCAUUAUUGCAGAAGGCUGAAUGCAGUGAUGUUGCAAUAAUAAUUUA [JR_SSFMNA_Sub003]	60.6 nM	229 nM	186 nM	313 nM	151 nM
AUAAACUUGCAGUGAUGUUGCAAGUAAGACUAGGAUAUCAGGAAACUGAGAAGGAGUCAUCUCCUUCAAACAUCACUAUGAAGGA [[K1]-[K2]-[F1]-[F2]-[F]'-[K]'-[F]''_Design5]	507 nM	263 nM	384 nM	413 nM	331 nM
CUUGGUCCACGAAGGAGCGCCGUGCAGUGAUGUUGCAGUCAGAUCGAGUGAUGUUUCGGGCGGCAGGUAGGUCGCGUGGCCCUUU [Excusion Arginine B GF 25]	655 nM	362 nM	768 nM	640 nM	464 nM
CUGACGCUGAUACGGUGGCCGGUGGUCGUGCGAGGACCGGUACGGCCGCCACUCGCAUGAGUGAUGUUCAUGUGUCGUCGUCGUC [#05 K4 Tryptophan A Exclusion]	116 nM	95.9 nM	114 nM	90.2 nM	123 nM
AGAAGGUCAAAGACCUUCGUGCACACUGAUACCAGUCGCGAAAGCGACCCUUGGCAGCAGGGCAGUGAUGUUGCCAAGUGCACAA [Omei KL Theo A SS A v2]	252 nM	278 nM	267 nM	136 nM	235 nM
UAAAUAAUAAAACGAGUGAUGUUCGACGAUACCAGCCUCGAUAGAGGCCCUUGGCAGCGUAAAUGAUCACAAAGCCAAGGAAUAA [#OpenEnded 1]	158 nM	174 nM	158 nM	192 nM	134 nM
UGGCAGGUAUCGGCCGCCACUUUCUAGUACAUACGCAUAUCUUUACCAUCAGUGAUGUUGAUCAUAAGGACCGGGAUACAUCAGG [theeternabot_exclusion_KL_Trp_B_22]	243 nM	208 nM	249 nM	220 nM	200 nM
AGACCACAAAGUGGUCAGUGUUCGCAGCAGCGAGGACCGGUACGGCCGCCACUCGCGAGUGAUGUUCGCGAGAGCUGCGAACACA [Omei KL Tryp A Exc A v7]	101 nM	83.2 nM	81.3 nM	83.3 nM	109 nM
UUUCUUUUCUUUUGCGAUCCUAUCCCUUAUAAGGAUAUCUAGAAAUAGAGAAGGUAUGCAGUGAUGUUGCUUGGGAUAGGAUCGC	311 nM	275 nM	301 nM	277 nM	241 nM
UGGACGUUAUACAAAUAGUAUAACUGGGAUACCAGUGACGAAAGUCACCCUUGGCAGCUCAACUGCCAGUGAUGUUGGUAGUCCA [Astros-Eli-mod#4]	307 nM	158 nM	172 nM	239 nM	145 nM
CGACCGGUAGCGGAUACCAGCCUUUGAGUGAUGUUCGAGUUGAGUUUCCGCGCGUCGAAAGGCCCUUGGCAGCCGAUACGCCUUC [theeternabot_exclusion_KL_Theo_B_14]	236 nM	192 nM	207 nM	187 nM	188 nM
CUCUGCUUCCCAGGGCUAGUGAUGUUAGCCCGAGGACCGGUACGGCCGCCACUCGAGUUAAGCAUCGACCGUGAAUGUUCGAAGC [theeternabot_exclusion_KL_Trp_A_48]	138 nM	143 nM	139 nM	179 nM	140 nM
CUACGUCGAGCGGCCGCCACUAUGGGUUGCCAAGUAGUGAUGUUACUGAGCUUUUAAUGAUCCUUUAGGACCGGGCUUUGGGAGG [theeternabot_sameState_KL_Trp_B_46]	281 nM	203 nM	227 nM	269 nM	174 nM
UGGACCUGACUCGAUACGAGUCAAUGAGAUACCAGCCACGAAAGUGGCCCUUGGCAGCUCUGCCAGUGAUGUUGGUCAAGGUCCU [#SwitchBubble 9 #StaticStem]	1540 nM	1140 nM	1530 nM	765 nM	1360 nM
UGACUACAGGAAUAAUAAUCUUAGUGAUGUUAGGAUAUGCUGAUAAGCAGAAGGAACUGAGAUCGAAAGAUCUCAAAAGUAGUCU [#05 K4 FMN A Exclusion]	445 nM	167 nM	202 nM	236 nM	199 nM
UUACCAAGUGAUGUUUGGAAAUAUCCUAGGCAGGAUAUGCGGAAACGCAGAAGGGCCACCUGAUAGUGAAGGAAACUUCGCUAUC [Ex FMN A 1]	168 nM	141 nM	152 nM	130 nM	151 nM
AGUGCAUGCUCGGCCGCCACUCAGAAGAAGAUAGAAGUGAUGUUUCUAAUGAUGAGAAUAAUAAAGAGGACCGGGAGAUGUGCAA [First try]	122 nM	125 nM	149 nM	164 nM	116 nM

Sequence	apparent KD of K4 kissing-loop reporter (input ligand: FMN 200 uM)	apparent KD of K4 kissing-loop reporter (input ligand: arginine 13.2 mM)	apparent KD of K4 kissing-loop reporter (input ligand: none)	apparent KD of K4 kissing-loop reporter [1]	apparent KD of K4 kissing-loop reporter [2]
GAGGUUUACGUAGGAUAUCGAUAAUGAGUAAAUGGAGUGAUGUUCCGAAAUUGAAUAAGAGAUGAGCGAGAAGGGCGGAUUAAGC [FMN B Same State; Euporia Solution]	39.1 nM	41.4 nM	37.8 nM	66.5 nM	43.4 nM
AAGGUUGUGCAUGGGAGUGAUGUUCCCAAGCAGGAUAUCGCUCACGCGAGAAGGGCUUGCACAACCGCUCAAGAAACUUGAGCAA [Omei KL FMN A SS C v6]	129 nM	179 nM	195 nM	200 nM	188 nM
GGUGCGCUGUUAGUGAUGUUAACCGAGGAUACCAGUUAGGCGUCUAACCCUUGGCAGCCUCUCUGGUCUCAUCAACGUUGUGCUA [theeternabot_exclusion_KL_Theo_A_37]	600 nM	431 nM	599 nM	641 nM	463 nM
AAAGCUCUAUAGAGCAAGAGGUCAACUGAUACCAGAGGCUAUAGCCUCCCUUGGCAGCGGAACGAGUGAUGUUCGAGACCUCAAA [AK6.1 SS Theophylline A]	1410 nM	1120 nM	1610 nM	939 nM	1130 nM
GAUCUGAACGAAAGUUCGGAUCAGUCCGAUACCAGUAUGGAUUCAUACCCUUGGCAGCGGUUAUCUGCUAUGGAGUGAUGUUCCU [Theophylline A K4 12]	363 nM	332 nM	410 nM	447 nM	227 nM
GGCGGCCGCGCGCAAGCGCGGCCGGCCGAUACCAGCGCGCCGGCGCGCCCUUGGCAGCGGCGCCGAGUGAUGUUCGGCCUGCCGG [#2 Same State - Theophylline A Attempt #9 (HarryS)]	477 nM	267 nM	449 nM	374 nM	401 nM
GGGUCUGCUCGAAGGAGCGCCCUGACAGGUUGCUGCCGUGGGCAGUGAUGUUGCUCAGUCCGGCAGGUAGGUCGCGAGCAGACCC	109 nM	118 nM	102 nM	89.8 nM	105 nM
UGACAUUGCUCAGAUACCAGACUUGAGGAUCACCCAGGUGCCAAAUACGUACAAAUAAAAGUCCCUUGGCAGCUGAGCAAUGUCU [TheoBX 12]	72.1 nM	55.6 nM	63.1 nM	113 nM	29.3 nM
UCACUUAAAAGAAAUAGAAAUUCUAGAGAUACCAGCGACACUCUUCGCCCUUGGCAGCUCAAGUGGGACCCAGUGAUGUUGGGCG [Xeceteza]	426 nM	289 nM	413 nM	269 nM	324 nM
UGGAGUUGACGAAAAGUCAACUCCCGAGAAGGAGCGGACGAAAGUCCAGGUAGGUCGCUCGCUACCAGUGAUGUUGGUACUUUAA	147 nM	189 nM	174 nM	219 nM	147 nM
AGAUGUCCCUGGGAUACCAGUCGGAGUCUCAGGGCUCGGAGUGAUGUUCUGGGAUGUUUCGGCCCUUGGCAGCCCUGGGACUCCC [#2 Exclusion - Theophylline B Attempt #26 (HarryS)]	573 nM	266 nM	908 nM	671 nM	398 nM
CUCAAGUGAGGAUUUCGACAUCAAGAUGUGAAGGAUAUGUUACCAAACAGAAGGUCACGAUGUCAUCUAUGAGUGAUGUUCAGGA [theeternabot_sameState_KL_FMN_A_31]	208 nM	130 nM	208 nM	186 nM	181 nM
UAUAUAGUGACGGCCGCCACUAUAUUAAUGUUUUUGUUAGAGUGAUGUUUUGUUUUAUAUUUUUAUAGGACCGGGUUAUAUGUUA [klppxmullin]	497 nM	377 nM	626 nM	480 nM	404 nM
AAGUGUGUGGCGGCCGCCACUAGAAUCCAGUGAUGUUGGAAUAAUCAAAUAAAUAAUAAUAAACAUAGGACCGGGCCAUAUAGAA [Same State - Tryptophan B (Freestyle 1)]	145 nM	140 nM	145 nM	157 nM	139 nM
AUUUUUUUAUCAGGAUAUUAGUGAUGGUUUUUUUUGUUAGUGAUGUUGAUAUUUGUUUUAUGUAUUUAAGAAGGGAUUGAGAUGU [tzzsullin]	120 nM	41.2 nM	56.9 nM	64.4 nM	84.2 nM
AAAAUAAACCAGUGAUGUUGGUGUCUGGAUACCAGCGACGAAAGUCGCCCUUGGCAGCUAUGGACGUACAAAAUAAGUACGUCCU [MatMod 7 - Jieux - Same State - Theophylline A]	704 nM	485 nM	622 nM	637 nM	510 nM
CGUGAAGCCCAGAGGUGAUGUAUAGUAUCGCGAGGACCGGUACGGCCGCCACUCGUGAAGAGAAAGGAGUGAUGUUCCGUAAUGG	480 nM	380 nM	595 nM	406 nM	165 nM
AAGUGAUGUUGUAGUGAUGUUGUGAUGUUGCAGGAUAUAUAGUGAUGUAGAAGGGUAAGUACUGAUUUUUUUUUUGAGUGAUGUU [ccbyzrmullin]	96.4 nM	43 nM	74.5 nM	53.9 nM	73.8 nM
GCGCGUCAUGUCAGCGGUGACUAUGUCGAUACCAGCGCCGCAAGGCGCCCUUGGCAGCGACGCGCUGGAGUGAUGUUCCAGCGUG [#2 Exclusion - Theophylline A Attempt #10 (HarryS)]	148 nM	118 nM	140 nM	144 nM	124 nM
UGACGUUUGGGAAGGAGCGGAAUGUAAUACGGAAUGCGUGGAGAUGCAGUGAUGUUGCAGAUCCAGGUAGGUCGCCCAAGGGACG [Soanina]	99.5 nM	84.9 nM	91.2 nM	79.3 nM	87.8 nM
CGAGUGAUGUUCGUUCGUAUAUUUGGGUGACAGGAUAUGCGGAAACGCAGAAGGGUCACCUUCGGGUUACCCGAAUUGGCGUUAU [Model 1]	372 nM	275 nM	427 nM	322 nM	298 nM
